Target: MDM2 SWIB domain, Danio rerio (Danio rerio)
Assay: fluorescence polarisation

Row | Kd [nM] | fold higher affinity than p53TAD (D.rerio)^15-27 [fold] | fold reduced affinity against p53TAD (D.rerio)^17-32 [fold] | Substance
1 | 580 | – | – | alternative p53TAD_(D.rerio)^17-32 (P79734), ending with IIQPP (peptide)
2 | 49 | > 70 | – | p53TAD_(D.rerio)^10-75 (domain or fragment)
3 | 180 | – | – | p53TAD_(D.rerio)^12-55 (domain or fragment)
4 | – | – | 7.7 | p53TAD_(D.rerio)^17-32 triple Ala mutant (AAAQP) (peptide)

— article doi:10.1101/2023.08.24.554616
